Molecular target: VEGF165 (vascular endothelial growth factor) (UniProt P15692-4 27-191)
Assay: impedance spectroscopy on aptamer-grafted interdigitated sensor; 5 and 50 pM VEGF in PBS; 10 kHz impedance 50.32 (water), 28.90 (5 pM), 12.81 kOhm (50 pM); proteins diluted in PBS (5 and 50 pM), about 25 °C, impedance 2.5-100 kHz; aptamer grafted at 50 nM, pH 8, 24 h; water pH 7 as control
Settings: protein: commercial; chain copies: 2

VEGF165 (vascular endothelial growth factor), sequence (P15692 other isoform, or with tags, fused parts or gaps): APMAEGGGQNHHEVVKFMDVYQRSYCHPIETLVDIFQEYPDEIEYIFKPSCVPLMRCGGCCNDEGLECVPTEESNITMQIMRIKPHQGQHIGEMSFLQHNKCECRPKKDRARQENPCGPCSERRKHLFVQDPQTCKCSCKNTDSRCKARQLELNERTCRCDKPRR

B1: VEGF165 DNA aptamer (ssDNA)
DNA: ATACCAGTCTATTCAATTGGGCCCGTCCGTATGGTGGGTGTGCTGGCCAGATAGTATGTGCAATCA
modifications: grafted on NHS-functionalized mercapto monolayer; attachment group on the DNA not stated
- binding result: binds

— PMC10381268, “VEGF Detection via Impedance Spectroscopy on Surface Functionalized Interdigitated Biosensor”
